Where two headings read alike, the source gives them in different places.
Assays:
[1] = tested on: murine colon carcinoma, Colo 26; assay: IL-18 and 5-FU combination therapy in syngeneic model of murine colon cancer Colo26; format: in vivo, BALB/c mice; conditions: monotherapy with 5-FU alone or mIL-18 alone
Protocol: This study aimed to evaluate the efficacy of mIL-18 (SEQ ID NO:2) combination therapy with 5-fluorouracil (5-FU), as compared to monotherapy with 5-FU, or mIL-18 (SEQ ID NO:2) alone. Our study was performed in a well established syngeneic subcutaneous model of murine colon carcinoma, Colo 26, in BALB/c mice. The dosing with mIL-18 (SEQ ID NO:2) was performed daily with 10 μg/mouse s.c. on days 10-30 after tumor inoculation. The dosing with 5-FU was performed i.p. twice a week in the ascending dose: 27, 45 and 74 μg/mouse.
The data comparing tumor volumes in different treatment groups were evaluated at a selected representative time-point, and were expressed as mean+/−SD (FIG. 21), and as median+/−range (FIG. 22). The data were first checked for normal distribution (Gaussian approximation), and standard deviation values were compared to make sure that there is an equal variance. […] Therefore, a non-parametric test (Kruskal-Wallis analysis and Dunn's comparison test) was used for the statistical evaluation. […] FIG. 24 (median+/−SD) and FIG. 25 (mean+/−SD) show the effect of IL-18 and 5-FU combination therapy in same Colo26 syngeneic colon tumor model. […]
Survival of mice bearing Colo26 in different treatment groups was plotted in a Kaplan-Meyer survival curve analysis, and evaluated by Logrank test, and is shown in FIG. 26. […]

[2] = tested on: EL-4 murine T-lymphoma cells; assay: IL-18 combination with doxorubicin in EL-4 T cell lymphoma (survival, increase in lifespan); format: in vivo, C57/BL/6 mice
Protocol: Studies were performed in female C57/BL/6 mice. As a general protocol, C57/BL mice were injected I.P. with 0.2 cc of stock EL-4 cells. EL-4 murine T-lymphoma cells were expanded in RPMI w/10% FCS. All animals were randomized to six or seven mice per study group with food and water ad libitum.
EL-4 cells were harvested on day 0, counted and implanted I.P. with 5×10^5 EL-4 lymphoma cells. Animals were randomized to treatment groups of 6/7 animals on Day 3. Doxorubicin was administered IV on Days 3 &10, pos-implantation. mIL-18 (SEQ ID NO:2) was administered S.C. on Days 3-16. The animals were observed daily for toxicity and mortality.
All animals tolerated dosing schedule and levels well by gross observation. On day 16, all dosing was terminated, and median vehicle death occurred on day 17.5. All vehicle mice expired between days 16-18 post-implantation. Increase in lifespan was calculated by study group/vehicle group—1×100%. For mIL-18 (SEQ ID NO:2) combination therapy with doxorubicin in EL-4 T cell lymphoma, the data were analyzed with respect to median survival time and increase in lifespan.

NK cells [3] = assay: NK cytotoxicity assay in the EL-4 T-cell lymphoma model; conditions: FIG. 12; 21 hours post-treatment
[4] = cited from earlier work
NK cells [5] = tested on: NK cells
MOPC-315 plasmacytoma = assay: IL-18 monotherapy in advanced MOPC-315 plasmacytoma model; format: in vivo, mice

O=c1[nH]cc(F)c(=O)[nH]1 [5-FU, 5-fluorouracil, reference compound]
therapeutic effect on tumor growth compared to control [1]: did not show a therapeutic effect better than a control

COc1cccc2c1C(=O)c1c(O)c3c(c(O)c1C2=O)C[C@@](O)(C(=O)CO)C[C@@H]3O[C@H]1C[C@H](N)[C@H](O)[C@H](C)O1 [doxorubicin, Doxorubicin, reference compound]
increase in lifespan ([2]; doxorubicin monotherapy, 12 mg/kg, IV days 3 & 10): minimal increase in lifespan | NK cytotoxicity (NK cells [3]): impaired

human IL-18: recombinant mature form of human interleukin-18, expressed in a non-pathogenic strain of Escherichia coli
toxicity at the highest dose tested ([4]; 2000 μg/kg administered weekly for up to 24 weeks, patients with renal cell carcinoma and metastatic melanoma): no significant toxicity | maximum tolerated dose ([4]; doses up to 2000 μg/kg weekly for up to 24 weeks): not identified

B1: mIL-18: Recombinant murine IL-18 (SEQ ID NO:2), used in the pre-clinical studies (protein)
chain: NFGRLHCTTAVIRNINDQVLFVDKRQPVFEDMTDIDQSASEPQTRLIIYMYKDSEVRGLAVTLSVKDSKMSTLSCKNKIISFEEMDPPENIDDIQSDLIFFQKRVPGHNKMEFESSLYEGHFLACQKEDDAFKLILKKKDENGDKSVMFTLTNLHQS
modifications: Murine
NK cytotoxicity (NK cells [5]): robust NK cytotoxicity | increase in lifespan ([2]; IL-18 monotherapy at 1, 5 and 25 ug/dose, S.C. days 3-16): did not show any increase in lifespan | anti-tumor effect (MOPC-315 plasmacytoma; advanced tumor, 5 mg/Kg daily for approximately 30 days): reproducible tumor regressions and cure | outcome of rechallenge with parental tumor (MOPC-315 plasmacytoma; after cure by murine IL-18): tumor rejection | anti-tumor effect in SCID mice (MOPC-315 plasmacytoma; severe combined immunodeficient mice bearing advanced MOPC-315 tumors, similar schedule): failed to regress | therapeutic effect on tumor growth compared to control [1]: did not show a therapeutic effect better than a control

— patent publication US20100196310A1, “METHODS OF TREATING CANCER BY ADMINISTERING HUMAN IL-18 COMBINATIONS” (SMITHKLINE BEECHAM CORPORATION, priority 2007, published 2010)
